Measurements as given in paper doi:10.1101/2024.08.14.606984 (bioRxiv, 2024).

Biological target: the molecule itself
Assay: SEC

B1: GCN2^K619R, kinase dead mutant of human General Control Non-derepressible 2 (GCN2) (enzyme, UniProt Q9P2K8 1-1649, looked up)
chain: MAGGRGAPGRGRDEPPESYPQRQDHELQALEAIYGADFQDLRPDACGPVKEPPEINLVLYPQGLTGEEVYVKVDLRVKCPPTYPDVVPEIELKNAKGLSNESVNLLKSRLEELAKKHCGEVMIFELAYHVQSFLSEHNKPPPKSFHEEMLERRAQEEQQRLLEAKRKEEQEQREILHEIQRRKEEIKEEKKRKEMAKQERLEIASLSNQDHTSKKDPGGHRTAAILHGGSPDFVGNGKHRANSSGRSRRERQYSVCNSEDSPGSCEILYFNMGSPDQLMVHKGKCIGSDEQLGKLVYNALETATGGFVLLYEWVLQWQKKMGPFLTSQEKEKIDKCKKQIQGTETEFNSLVKLSHPNVVRYLAMNLKEQDDSIVVDILVEHISGVSLAAHLSHSGPIPVHQLRRYTAQLLSGLDYLHSNSVVHKVLSASNVLVDAEGTVKITDYSISKRLADICKEDVFEQTRVRFSDNALPYKTGKKGDVWRLGLLLLSLSQGQECGEYPVTIPSDLPADFQDFLKKCVCLDDKERWSPQQLLKHSFINPQPKMPLVEQSPEDSEGQDYVETVIPSNRLPSAAFFSETQRQFSRYFIEFEELQLLGKGAFGAVIKVQNKLDGCCYAVRRIPINPASRQFRRIKGEVTLLSRLHHENIVRYYNAWIERHERPAGPGTPPPDSGPLAKDDRAARGQPASDTDGLDSVEAAAPPPILSSSVEWSTSGERSASARFPATGPGSSDDEDDDEDEHGGVFSQSFLPASDSESDIIFDNEDENSKSQNQDEDCNEKNGCHESEPSVTTEAVHYLYIQMEYCEKSTLRDTIDQGLYRDTVRLWRLFREILDGLAYIHEKGMIHRDLKPVNIFLDSDDHVKIGDFGLATDHLAFSADSKQDDQTGDLIKSDPSGHLTGMVGTALYVSPEVQGSTKSAYNQKVDLFSLGIIFFEMSYHPMVTASERIFVLNQLRDPTSPKFPEDFDDGEHAKQKSVISWLLNHDPAKRPTATELLKSELLPPPQMEESELHEVLHHTLTNVDGKAYRTMMAQIFSQRISPAIDYTYDSDILKGNFSIRTAKMQQHVCETIIRIFKRHGAVQLCTPLLLPRNRQIYEHNEAALFMDHSGMLVMLPFDLRIPFARYVARNNILNLKRYCIERVFRPRKLDRFHPKELLECAFDIVTSTTNSFLPTAEIIYTIYEIIQEFPALQERNYSIYLNHTMLLKAILLHCGIPEDKLSQVYIILYDAVTEKLTRREVEAKFCNLSLSSNSLCRLYKFIEQKGDLQDLMPTINSLIKQKTGIAQLVKYGLKDLEEVVGLLKKLGIKLQVLINLGLVYKVQQHNGIIFQFVAFIKRRQRAVPEILAAGGRYDLLIPQFRGPQALGPVPTAIGVSIAIDKISAAVLNMEESVTISSCDLLVVSVGQMSMSRAINLTQKLWTAGITAEIMYDWSQSQEELQEYCRHHEITYVALVSDKEGSHVKVKSFEKERQTEKRVLETELVDHVLQKLRTKVTDERNGREASDNLAVQNLKGSFSNASGLFEIHGATVVPIVSVLAPEKLSASTRRRYETQVQTRLQTSLANLHQKSSEIEILAVDLPKETILQFLSLEWDADEQAFNTTVKQLLSRLPKQRYLKLVCDEIYNIKVEKKVSVLFLYSYRDDYYRILF
  stoichiometry N: 2
